Experimental data: US10487307B2, “Culture method for pluripotent stem cells” (FUJIFILM CORPORATION, priority 2013, dated 2019)

Tests used:
[1] = Evaluation of adsorbability with respect to cell culture surface (OPA fluorescence); type: physicochemical; settings: FIG. 1; 0 to 200 pmol/cm^2 added, 2 hours at 37° C., washed twice with PBS
Description: Each of the polypeptides of RCP-1 to RCP-11 and RCP-21 to RCP-26 obtained as above was diluted with a predetermined buffer such that they could be added to wells at a predetermined final concentration of 0 pmol/cm^2 to 200 pmol/cm^2. Thereafter, each of the polypeptides was added in an amount of 64 μL to a plasma-treated 96-well plate made of polystyrene (Tissue Culture-Treated, Falcon). Each of the polypeptides was allowed to adsorb onto the plate by being incubated for 2 hours at 37° C., and then the wells were washed twice with PBS, thereby obtaining surfaces coated with each of the polypeptides of RCP-1 to RCP-11 and RCP-21 to RCP-26.
Among the surfaces coated with each of the polypeptides obtained as above, the surfaces coated with RCP-1 and RCP-21 to RCP-26 were applied with 64 μL of a borate buffer and 64 μL of 1 N NaOH, followed by incubation for 24 hours at 80° C. and 100% humidity. After the resultant was air-cooled, 75 μL of a borate buffer was added to each well, and 50 μL of a reaction solution obtained by mixing OPA (o-phthalaldehyde: Wako Pure Chemical Industries, Ltd./methanol solution (160 mg/ml)) with N-acetyl-L-cysteine (NAC: Wako Pure Chemical Industries, Ltd.)/borate buffer solution (2 mg/ml) at a ratio of 1:100 (mass ratio) was further added thereto. After incubation for 30 minutes at 40° C., the fluorescence intensity thereof was measured by using an Envision Multilabel Counter (PerkinElmer Inc.) (excitation 355 nm/fluorescence 486 nm). A calibration curve was separately prepared from each of the polypeptide solutions so as to calculate the amount of the polypeptide adsorbed. In FIG. 1, a black rhombus indicates RCP-1, a black square indicates RCP-21, a black triangle indicates RCP-22, a black circle indicates RCP-23, a white rhombus indicates RCP-24, a white square indicates RCP-25, and a white triangle indicates RCP-26.

iPS cells [2] = test: Growth evaluation, growth curves over 8 days; type: cell-based, human
Description: The iPS cells collected in the same manner as in <Cell adhesiveness evaluation 1> were seeded into a 96-well plate, onto which RCP-1, RCP-21, and natural human vitronectin were adsorbed, at a ratio of 250 cells/well and cultured for 8 days in a 5% CO2 incubator at 37° C. The number of adhesive cells after different days of culture was measured in the same manner as in <Cell adhesiveness evaluation 1>, thereby obtaining growth curves. […] In FIG. 2, a black rhombus indicates a case using RCP-1, and a black square indicates a case using RCP-21.
From the increase and decrease in the obtained number of cells, the doubling time was calculated. As a result, it was confirmed that it takes 46.4±2.1 hours for the number of cells to be doubled in a case where RCP-1 is used, and 67.7±2.1 hours in a case where RCP-21 is used.

iPS cells [3] = test: Cell adhesiveness evaluation 3 (RCP-1 added amount); type: cell-based, human; settings: for Cell adhesion rate (%): natural vitronectin 130 pmol/cm^2 = 100%, n=3
Description: The cell adhesiveness was evaluated in the same manner as in <Cell adhesiveness evaluation 1>, except that RCP-1 was used after the concentration thereof was adjusted to 125 pmol/cm^2 to 1,000 pmol/cm^2 by using PBS. In Table 10, the cell adhesion rate is expressed as a ratio calculated by regarding a cell adhesion rate with respect to the cell culture surface, onto which natural vitronectin is adsorbed at a concentration of 130 pmol/cm^2, as being 100%. n=3.

[4] = Evaluation 2 about amount of residual polypeptide adsorbed (2-mercaptoethanol in PBS); type: physicochemical; settings: PBS with 2-mercaptoethanol 8.96 μM to 89.6 mM, 37° C.; FIG. 7
Description: A cell culture surface coated with RCP-11 was prepared in the same manner as in Example 3, and then PBS containing 2-mercaptoethanol was added thereto such that the final concentration of 2-mercaptoethanol became 89.6 mM (0.7% by mass), 8.96 mM (0.07% by mass), 895.94 μM (0.007% by mass), 89.59 μM (0.0007% by mass), or 8.96 μM (0.00007% by mass), followed by incubation at 37° C. for a predetermined time. Thereafter, in the same manner as in Example 3, the amount of RCP-11 adsorbed was determined, and the residual rate of the polypeptide adsorbed was obtained. In FIG. 7, the amount of residual RCP-11 adsorbed is expressed as a ratio calculated by regarding the amount of RCP-11 adsorbed immediately after the starting of incubation as being 100%. Furthermore, “2-ME” indicates 2-mercaptoethanol.

[5] = Example 5: residual rate of RCP-11 adsorbed after 2-mercaptoethanol pretreatment; type: physicochemical; settings: 24 hours
Description: In the same manner as in Evaluation 1 about amount of residual polypeptide adsorbed> of Example 3, RCP-11 was added to the respective wells, thereby obtaining a coated cell culture surface. Thereafter, a 2-mercaptoethanol/PBS solution of which the concentration was adjusted in advance as shown in Table 14 was added thereto, followed by incubation for 24 hours, thereby accelerating the desorption of RCP-11.
(§1) After the cells were cultured for 72 hours, the number of cells was quantified in the same manner as in <Cell growth property evaluation 1> of Example 3. In the table, each of the residual rate of RCP-11 adsorbed and the cell growth rate is expressed as a ratio calculated by regarding the residual rate of the polypeptide adsorbed and the cell growth rate in the case where the pretreatment with PBS is performed as being 100%.

iPS cells [6] = test: Example 5: cell growth on pretreated RCP-11 surface; type: cell-based, human
Description: Meanwhile, in the same manner as in <Cell growth property evaluation 1> of Example 3, iPS cells were collected and suspended in Essential 8. The iPS cells were then seeded into the respective wells, to which 2-mercaptoethanol was added so as to accelerate the desorption of RCP-11, at a cell density of 10,000 cells/well, thereby starting culture.
as §1

| Molecule | adsorbability with respect to the plate [1] | doubling time (iPS cells [2]; 250 cells/well, cultured for 8 days) | cell growth properties (iPS cells [2]; FIG. 2) | Cell adhesion rate (%) (iPS cells [3]; added amount 125 pmol/cm^2) | Cell adhesion rate (%) (iPS cells [3]; added amount 250 pmol/cm^2) | Cell adhesion rate (%) (iPS cells [3]; added amount 500 pmol/cm^2) | Cell adhesion rate (%) (iPS cells [3]; added amount 1000 pmol/cm^2) | adhesiveness of iPS cells (iPS cells [3]; added amount equal to or greater than 125 pmol/cm^2) | amount of residual RCP-11 versus 2-mercaptoethanol concentration [4] | Residual rate of RCP-11 adsorbed (%) ([5]; pretreatment 2-Mercaptoethanol 8.96 μM (0.00007% by mass), PBS pretreatment = 100%) | Residual rate of RCP-11 adsorbed (%) ([5]; pretreatment 2-Mercaptoethanol 895.94 μM (0.007% by mass), PBS pretreatment = 100%) | Residual rate of RCP-11 adsorbed (%) ([5]; pretreatment 2-Mercaptoethanol 89.6 mM (0.7% by mass), PBS pretreatment = 100%) | Residual rate of RCP-11 adsorbed (%) ([5]; pretreatment PBS, this = 100%) | Cell growth rate (%) (iPS cells [6]; pretreatment 2-Mercaptoethanol 8.96 μM (0.00007% by mass), Essential 8, 72 hours, PBS pretreatment = 100%) | Cell growth rate (%) (iPS cells [6]; pretreatment 2-Mercaptoethanol 895.94 μM (0.007% by mass), Essential 8, 72 hours, PBS pretreatment = 100%) | Cell growth rate (%) (iPS cells [6]; pretreatment 2-Mercaptoethanol 89.6 mM (0.7% by mass), Essential 8, 10,000 cells/well, 72 hours, PBS pretreatment = 100%) | Cell growth rate (%) (iPS cells [6]; pretreatment PBS, Essential 8, 72 hours, this = 100%) |
| --- | --- | --- | --- | --- | --- | --- | --- | --- | --- | --- | --- | --- | --- | --- | --- | --- | --- |
| RCP-1: recombinant polypeptide for culture, SEQ ID NO: 15; human vitronectin positions 1-55 and 269-459 with N-terminal methionine (protein, Vitronectin-derived Recombinant Protein (RCP-1)) MDQESCKGRCTEGFNVDKKCQCDELCSYYQSCCTDYTAECKPQVTRGDVFTMPEDEPSQEECEGSSLSAVFEHFAMMQRDSWEDIFELLFWGRTSAGTRQPQFISRDWHGVPGQVDAAMAGRIYISGMAPRPSLAKKQRFRHRNRKGYRSQRGHSRGRNQNSRRPSRATWLSLFSSEESNLGANNYDDYRMDWLVPATCEPIQSVFFFSGDKYYRVNLRTRRVDTVDPPYPRSIAQYWLGCPAPGHL | excellent adsorbability | 46.4 ± 2.1 h | higher cell growth properties compared to RCP-21 | 90.3 ± 25.3% | 89.2 ± 10.6% | 108.8 ± 23.0% | 98.5 ± 17.2% | equivalent to the cell adhesion rate of the natural vitronection |  |  |  |  |  |  |  |  |  |
| RCP-11: recombinant polypeptide for culture, SEQ ID NO: 25; vitronectin positions 1-55, 269-277, 295-341, 342-373, C274S (protein, Vitronectin-derived Recombinant Protein (RCP-11), vitronectin positions 1-55, 269-277, 295-341, 342-373, C274S) MDQESCKGRCTEGFNVDKKCQCDELCSYYQSCCTDYTAECKPQVTRGDVFTMPEDESQEESEGSEDIFELLFWGRTSAGTRQPQFISRDWHGVPGQVDAAMAGRIYISGMAPRPSLAKKQRFRHRNRKGYRSQRGHSRGRNQN |  |  |  |  |  |  |  |  | tends to decrease as the concentration of 2-mercaptoethanol increases | 82.2% | 77.4% | 56.6% | 100% | 85.2% | 70.7% | 38.0% | 100% |
